Measured values: the supplement of paper PMC12764529
± gives the half width of the 95% confidence interval.

Key:
[1] = folding stability dG unfold from trypsin proteolysis; higher = more stable
In short: (§1)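 Unfolding free energy was derived, per protease or combined, by relating Bayesian-fitted K50 values from sequencing counts to a sequence-predicted unfolded-state K50 and a shared folded-state K50. The underlying digests exposed cysteine-free mini-proteins under 80 residues, in a PA-tagged cDNA display construct, to trypsin and chymotrypsin at 11 threefold-diluted concentrations and to a no-protease condition. A filter kept only designs with AlphaFold2 dimer inter-PAE above 15.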

[2] = folding stability dG unfold (combined trypsin and chymotrypsin); higher = more stable
In short: as §1

[3] = folding stability dG unfold from chymotrypsin proteolysis; higher = more stable
In short: as §1

| Sequence | folding stability dG unfold [1] | folding stability dG unfold [2] | folding stability dG unfold [3] |
| --- | --- | --- | --- |
| SAGGSAGGSAGNVTLTRVEVLEGEDDRPLIKATFSFEPGPQVLVFEGDNPDDIEIDVDVGSAGGSAGGSAGG [r17_64_TrMRF] | -0.45 ± 0.096 kcal/mol | -0.0491 ± 0.13 kcal/mol | 0.0818 ± 0.12 kcal/mol |
| SAGGSAGGSAGNWIIRIRWPGKSIMFVLPEGMNVDEIATNIQDEFNYPIDIEVIPPGQPISAGGSAGGSAGG [r11_805_TrROS] | 2.15 ± 0.071 kcal/mol | 2.5 ± 0.15 kcal/mol | 2.65 ± 0.062 kcal/mol |
| SAGGSAGGSAGNWRWIMIPIKVPPGLEAGEEIEIKIPNGVEVWYHYNEPGTIWMMIRVPDSAGGSAGGSAGG [r11_362_TrROS] | 2.69 ± 0.069 kcal/mol | 2.88 ± 0.085 kcal/mol | 2.96 ± 0.037 kcal/mol |
| SAGGSAGGSAGPEKMRIEDIEHERNPEDGRHTVKIKIPNGPDITFQFTDPEDLDDFKLEVSAGGSAGGSAGG [r11_711_TrROS] | -0.274 ± 0.079 kcal/mol | 0.0382 ± 0.22 kcal/mol | 0.334 ± 0.075 kcal/mol |
| SAGGSAGGSAGPEKTVTLRVKITNADGQEQTLELTAETEEEALAALRALLPPGAKVEIEPSAGGSAGGSAGG [r11_671_TrROS_Hall] | 1.99 ± 0.067 kcal/mol | 3.35 ± 0.087 kcal/mol | 3.66 ± 0.07 kcal/mol |
| SAGGSAGGSAGPIKITSVEYDPNSGTIIARFPDGVVIRIKMNPDGNFKIDEIYPIKPGDLSAGGSAGGSAGG [r17_61_TrROS] | 2.37 ± 0.088 kcal/mol | 2.02 ± 0.14 kcal/mol | 1.57 ± 0.08 kcal/mol |
| SAGGSAGGSAGPKIEIEKLPGPYYLLKIYLPDENGNPIEALVVATSPEEAVEKLKELLKSSAGGSAGGSAGG [r11_819_TrMRF] | 3.21 ± 0.14 kcal/mol | 3.18 ± 0.098 kcal/mol | 3.15 ± 0.043 kcal/mol |
| SAGGSAGGSAGPMYIITHTSPNEPIEFIFPPDDAEEFLKKLKLPPNMNIKVEPIDPDDMKSAGGSAGGSAGG [r17_395_TrROS] | 0.0355 ± 0.07 kcal/mol | 0.367 ± 0.18 kcal/mol | 0.715 ± 0.21 kcal/mol |
| SAGGSAGGSAGPNMVPIGKLTIEIRNPDNGNPLRIRIDLYVVPAPDGWMIALRILDIEPPSAGGSAGGSAGG [r11_113_TrROS] | 2.45 ± 0.13 kcal/mol | 3.7 ± 0.26 kcal/mol | 4.15 ± 0.21 kcal/mol |
| SAGGSAGGSAGPPDFQIYVDIETQRNPGNGRYYVTMKIYIGNKPIVEITIPAGEPLKIKFSAGGSAGGSAGG [r17_281_TrROS] | 2.66 ± 0.12 kcal/mol | 3.4 ± 0.14 kcal/mol | 3.9 ± 0.045 kcal/mol |
| SAGGSAGGSAGPPDIEVNYYRYEGYYRVNISFPNNRPIEIMMKGPGMPAEDFVKKLLDQLSAGGSAGGSAGG [r11_313_TrROS] | 1.84 ± 0.1 kcal/mol | 2.1 ± 0.14 kcal/mol | 2.35 ± 0.059 kcal/mol |
| SAGGSAGGSAGPPKPIWFRVKEVEVNPDNGTLEIKFENGQTITIPPENIENLPPGDWIRISAGGSAGGSAGG [r11_124_TrROS] | 0.838 ± 0.029 kcal/mol | 1.33 ± 0.058 kcal/mol | 1.53 ± 0.061 kcal/mol |
| SAGGSAGGSAGPPNIKMEPETRTYVLPGGWAIRVSIMKIKPPDGKPLIMAMEEIIPPDDPSAGGSAGGSAGG [r17_312_TrROS] | 0.958 ± 0.1 kcal/mol | 1.27 ± 0.31 kcal/mol | 1.27 ± 0.23 kcal/mol |
| SAGGSAGGSAGPPPFKLKIDEMEMADDMFRIKLTIEDPNGEVTVDYWIGNQPFKLRIKPDSAGGSAGGSAGG [r17_45_TrROS] | 1.53 ± 0.039 kcal/mol | 2.12 ± 0.17 kcal/mol | 2.39 ± 0.17 kcal/mol |
| SAGGSAGGSAGPTYKIKIYFEDTGVEAEVEINEDGSLTITVPKELLPPGAKVKVEIVKVPSAGGSAGGSAGG [r17_392_TrROS_Hall] | 1.28 ± 0.057 kcal/mol | 1.57 ± 0.26 kcal/mol | 1.66 ± 0.098 kcal/mol |
| SAGGSAGGSAGPVLKIKVEVKLEKKYDKNGKLVEEKLEVKVEIELLEPAPPASDEELKKKSAGGSAGGSAGG [r11_131_TrROS_Hall] | 0.29 ± 0.24 kcal/mol | 1.6 ± 0.39 kcal/mol | 1.69 ± 0.2 kcal/mol |
| SAGGSAGGSAGPVRTIEILFPFDPGESLEFEIRIPGNGRKIKVSIEPYPNGWMRIKITVYSAGGSAGGSAGG [r17_131_TrROS] | 4.75 ± 0.21 kcal/mol | 5.69 ± 0.21 kcal/mol | 5.68 ± 0.26 kcal/mol |
| SAGGSAGGSAGPWVWIIMIHMEIERVTVEVRPDPDGKWEYKLEITIKIEIHIIPLPPGATSAGGSAGGSAGG [r11_24_TrROS] | 3.55 ± 0.15 kcal/mol | 5.26 ± 0.17 kcal/mol | 5.37 ± 0.11 kcal/mol |
| SAGGSAGGSAGPYKVKVTLKNGEVLEFTIPEEFKDLKEVKIDLPEELKENIVKVEIEPLESAGGSAGGSAGG [r17_528_TrMRF] | 2.56 ± 0.1 kcal/mol | 2.95 ± 0.059 kcal/mol | 3.199 ± 0.02 kcal/mol |
| SAGGSAGGSAGQTLLVEVNGQLAEITIDPDVPGQITITLPNGEQITLEVRLEPPPPPEEESAGGSAGGSAGG [r17_85_TrROS_Hall] | 2.08 ± 0.3 kcal/mol | 1.6 ± 0.16 kcal/mol | 1.39 ± 0.17 kcal/mol |
| SAGGSAGGSAGREIADEIKDILQEKGFEIKDIEVTRPPNGYPMVEITVRHDNGKKWTIWISAGGSAGGSAGG [r11_780_TrROS] | 1.5 ± 0.038 kcal/mol | 1.76 ± 0.099 kcal/mol | 1.91 ± 0.095 kcal/mol |
| SAGGSAGGSAGRLLLEGLGADEVLRLEPEPDRVPIVVRHRDGGRDVVIEMDFEEAVRAILSAGGSAGGSAGG [r11_630_TrMRF] | -1.22 ± 0.67 kcal/mol | -0.771 ± 0.42 kcal/mol | -0.538 ± 0.28 kcal/mol |
| SAGGSAGGSAGRVEKIVSNLKPLGYEVLSVEETEDYVLAVVYDPFTDEPRVFRFPKDSPFSAGGSAGGSAGG [r11_428_TrMRF] | 1.27 ± 0.017 kcal/mol | 1.41 ± 0.11 kcal/mol | 1.18 ± 0.13 kcal/mol |
| SAGGSAGGSAGRVVKITLPDGSSLDIDVPADDDLTKEEIEARLTVPPGEKVSIKSIEILEESAGGSAGGSAG [r3_465_JUSTAS] | 0.0468 ± 0.037 kcal/mol | 0.628 ± 0.085 kcal/mol | 0.899 ± 0.033 kcal/mol |
| SAGGSAGGSAGSETYYIKIGDKLYTVTVEPDSITVKYPETSEEKTFSSSLPGISLEEILSSAGGSAGGSAGG [r11_648_JUSTAS] | 1.63 ± 0.041 kcal/mol | 1.71 ± 0.065 kcal/mol | 1.68 ± 0.054 kcal/mol |
| SAGGSAGGSAGSFLIVVRFPNSTVLFDAPEDTDVDALKKAIKKLFNADIEVEVVPKEKPLSAGGSAGGSAGG [r11_805_TrMRF] | 1.75 ± 0.058 kcal/mol | 1.79 ± 0.093 kcal/mol | 1.55 ± 0.051 kcal/mol |
